{
  "source": "the DeepSol protein solubility set",
  "data": [
    {"assay": "soluble on expression in E. coli; label from the status in PepcDB or PDB records", "values": [
      {"sequence": "GMALQEEFIDVNGTRVFQRKMVTDSNRRSIALFHGYSFTSMDWDKADLFNNYSKIGYNVYAPDYPGFGRSASSEKYGIDRGDLKHAAEFIRDYLKANGVARSVIMGASMGGGMVIMTTLQYPDIVDGIIAVAPAWVESLKGDMKKIRQKTLLVWGSKDHVVPIALSKEYASIISGSRLEIVEGSGHPVYIEKPEEFVRITVDFLRNL", "soluble on expression in E. coli": "soluble"},
      {"sequence": "MSLADIPYGTDYPDAPWIDRDGHVLIDDGGKPTQVHRGQARIAYRLAERYQDKLLHVAGIGWHSWDGRRWAADDRGEAKRAVLAELRQALSDSLNDKELRADVRKCESASGVAGVLDLAAALVPFAATVADLDSDPHLLNVANGTLDLHTLKLRPHAPADRITKICRGAYQSDTESPLWQAFLTRVLPDEGVRGFVQRLAGVGLLGTVREHVLAILIGVGANGKSVFDKAIRYALGDYACTAEPDLFMHRENAHPTGEMDLRGVRWVAVSESEKDRRLAESTIKRLTGGDTIRARKMRQDFVEFTPSHTPLLITNHLPRVPGDDTAIWRRIRVVPFEVVIPADEQDRELDARLQLEADSILSWAVAGWSDYQRIGLSQPDAVLAATSNYREDSDTIKRFIDDECVTSSPVLKATTTHLFEAWQRWRVQEGVPEISRKAFGQSLDTHGYPVTDKARDGRWRAGIAVRGADDFDEGHHHHHH", "soluble on expression in E. coli": "soluble"},
      {"sequence": "MGCMKSKETFPFPTTLDIDKLHESEEAFIPDDSSQYRTPSPGEQQQVQEVKKLPEPGAVIGALILEFADRLASEIVEDALQQWACENIQYYNIPYIESEGSDTTIN", "soluble on expression in E. coli": "soluble"},
      {"sequence": "MGSDKIHHHHHHMIAIEEIGRITPDNLGLVTVLAGEDLGQYAQMKEKLFQVIGFNKDDLAYSYFDLSEEDYQNAELDLESLPFLSDYKVVIFDQFQDITTDKKTYLDEQAMKRFEAYLQNPVDTTRLVICAPGKLDGKRRLVKLLKRDARVLEANTLKESDLKTYFQKYAHQEGLVFEAGVFDELLIKSNYDFSDTLTNIAFLKSYKTDGHISSNDVREAIPKSLQDNIFDLTQDVLLGRIDLARDLVRDLRLQGEDEIKLIAIMLGQFRMFLQVKILASKGKSESQIVSELSHYIGRKINPYQVKFAVRDSRNLPLAFLKEAIRILIETDYAIKRGTYDKDYLFDLALLKIAHKKP", "soluble on expression in E. coli": "not soluble"},
      {"sequence": "MGSDKIHHHHHHMKEILTVTELNSYIANLLDSDPFLGQLWLRGEISGFRLYQQSGHMYFTLKDEDSTISAVMFKSRARGLKFKPKDGMEVLLRASVSVFARQGKYQLYVEEMQPYGIGGLFLYLEELKKKLAAKGYFAPERKKAIPAFVQRVGIVTSQDGAALRDICRILKQRHPGVEVVLAHSSVQGSEAPGELAEGLRLLNSYAEVELIIIGRGGGSYEDLMAFNSELVVQAIYESNIPVISAVGHEVDFTLADLVADLRAATPSQAASLAVADMQALSRQLDNYQQRLLRAMQRKLLYYTEIIDRLMMKRIWKQPRSLLHMREELLSQLEKSLSRGMAEIFREKKMKLSMNMAALDSLSPLKIMERGYVLLQKEGRIIRDEQQVQIGDRLEVAMRHADLEIEVIKKERVKRWKS", "soluble on expression in E. coli": "not soluble"},
      {"sequence": "MGSDKIHHHHHHMANSGQIRVGIGGWNFEPWEGTFYPDDLPKKRQLEFAGKELRTIEVNGTYYSSQKPATFAKWAAEVPDGFIFSLKASRFVTNRRVLSEAGESMERFLTQGLTELGDRLGPILWQFAPTKKFDAEDFEGFLKLLPEKQDGLKLRHVVEVRNPSFQVPDFVKLIEKYKVAVVLAEHADYPMIADVTGDFVYARLQKGSDEVKTCYPPKDLDRWAERLKTFAAGGEPDDLEKAAPERQPETAPRDVFAFFITSGKVNAPNGARELQKRVG", "soluble on expression in E. coli": "not soluble"},
      {"sequence": "MAHHHHHHMDDYHDDDVHSNYGYEDDEYDDAADDWEAEAAEEEQRAVAEEAARQARLEKKLATRAPVKKEEEEEAVPEDVERAMADMRQVANDIASGSALLSGGDSEELIGNHKLASDADVERVGTMIADRLTSFSDSGHYDKLIVEVFQRLTNHLTSTHLLNEEADRVHRLREELKRAAKAKLKPVEKAPVTQSGLDLDNFEDRGGAAVADNEDETGW", "soluble on expression in E. coli": "soluble"},
      {"sequence": "MGSDKIHHHHHHMLVGREKELHLLHDIQNDDSSHFVAVYGRMREGKTFLIREAFGYRFTFQHAGLSEGGMKEQIYAFTSSLKDAGYEVKKQPQNWLEAFEALKDVIRLSSEKKKIIFIDELSWMDTQKSDLMVALENFWNGFASARKDIVLIVCASATSWMLSKVVHNKGGLYNRLTEQIHLRTFCLRECEAYVKAAGLALNRNQILQYYMIFGGVPYYWGFLKKGLSLSQNIDSILFEKDAPLRDEFKYLYASVFKKPENYVKIIEALGTKKVGMTREEIITSTKIPNSGDLTTKLEELESCGFIRKYNAFGMKKKNAIYQLMDCFTLFYFKFLKSEPTDEHFWTNQINTPAVNTWLGLAFERVCMEHVDQIKFKLGISGVLTEINSWYCKSDPDNGIFGSQIDMLIARKDQVINLCEMKYSQSEYTITEKVDRSIRNKISDLRVVSGTKYAIYPTLITTYGVVENSYSQELQSVVTMDDLFA", "soluble on expression in E. coli": "not soluble"},
      {"sequence": "MGSDKIHHHHHHMNLRQLYYFKKLAEKEHYTIAAAELSITQPSLSHSIAELERELGVYLFEKQGRNIRLTKYGRFYLTYVEKSLAELEKGEKLLHELTSPSHGNIDLGFIYTMGAHTVPELVQNFTKAENHKDITFSFYQGATKSIIPDLKNEKFDLAICSYVENEPDIEFLPLTKQELVIVVAENHPLAKYDSIDLKDTADYSYIFFSDTSGLRPLIDSLFAEINIQPKIGCYVEEDTAMVGLVSVDYGISIMPKISSLAHYNVKVLSINEPKHERFIYLASLKNHYISPASKAFKDFALRYGEKHFL", "soluble on expression in E. coli": "not soluble"},
      {"sequence": "MGSDKIHHHHHHMNQTLRIGSGAAWWGDRVEPAALNAEHGALDYLCFETMAEATVSAAQVRLRRDSSFAGYDTYLDERMRAVLPACMRHGTRIISNQGWINPTGAAERIVQLLRDAGQHGVRVAAVCGSLITDRVLELADRVLENGAPVRSLAPDLISAEVYLGAEPIVAALRAGAQIVVTGRVADPSIFLAPMMHGFGWDPLDHERVGAGSAIGHLLECGAQVTGGYFCDPGFKELPEPWNFAFPIAEVQSDGTAVITKVAGSGGGVTLQTVKEQMLYEVHDPANYLTPDVVVDFTQARLEQIGPDRVRVTGLTGKPRTPTLKVTIGCAEGFIGEDMFFYAGPGALRRAQWARKILQERFRIVQLQAEELRIDFLGLNAIHGAATPADAVEPYEVAVRVAARTKTRAEAAKVGREVDGMAVSGIAHTGKRVPHQERWREVIGLWSALVPREAVPAHICYFES", "soluble on expression in E. coli": "not soluble"},
      {"sequence": "MEKEIKEKNLPLELTLVEASPRVGGKIQTVKKDGYIIERGPDSFLERKKSAPQLVKDLGLEHLLVNNATGQSYVLVNRTLHPMPKGAVMGIPTKIAPFVSTGLFSLSGKARAAMDFILPASKTKDDQSLGEFFRRRVGDEVVENLIEPLLSGIYAGDIDKLSLMSTFPQFYQTEQKHRSLILGMKKTRPQGSGQQLTAKKQGQFQTLSTGLQTLVEEIEKQLKLTKVYKGTKVTKLSHSGSCYSLELDNGVTLDADSVIVTAPHKAAAGMLSELPAISHLKNMHSTSVANVALGFPEGSVQMEHEGTGFVISRNSDFAITACTWTNKKWPHAAPEGKTLLRAYVGKAGDESIVDLSDNDIINIVLEDLKKVMNINGEPEMTCVTRWHESMPQYHVGHKQRIKELREALASAYPGVYMTGASFEGVGIPDCIDQGKAAVSDALTYLFS", "soluble on expression in E. coli": "not soluble"},
      {"sequence": "MSDGSVERGTKRAEDSLATHQLTVQYKRYYIDVNENTRGRYIKIAELGTNYKSRIILSIVAAKAIVSEISKMLALIDEPSTGEHAPKESSLIKSETLNVDGRKFYVDLKENVRGRFLRIAQMPMNPRQTRQQIAIPSDGIAEIHKVLTEYLAKFGEGHEQENTNTPKITAENKSFLFHSGKNDRGEFVRISEIKLNSGYRNAITVPMSALVDFRKELDNIIANQGK", "soluble on expression in E. coli": "not soluble"},
      {"sequence": "MSLQNMETRYTHSPADIRHYSTEQLRDEFLVEKVFIPGAISLTYTHNDRMIFGGVTPTTEELEIILDKELGVDYFLERRELGVINIGGPGFIEIDGAKETMKKQDGYYIGKETKHVRFSSENPDNPAKFYISCVPAHHKYPNVKISIDEITPMETGDPLTLNQRKIYQYIHPNVCESCQLQMGYTILEPGSAWNTMPCHTHERRMEAYVYFDMEEDTRIFHMMGKPDETKHLVMSNEQAAISPSWSIHSGVGTSNYSFIWAMCGENITYTDMDMVAMDQLKEGHHHHHH", "soluble on expression in E. coli": "soluble"},
      {"sequence": "MGQDTDMLNTYQQLVRTPSVRPGQDVRLQAPGTRTGLLKLLSTVSQDKQGCLGSGDGVPNQDLQQRSQSSRQTAKKDRKPRGQSKKGQGSEESEDHFPLLPRKPSFPFQWAWESIATDVRAVLQPSSPTPGHQALPMPSSFSQRQSRRKSTANLPEAHGCCWKTEAQNLKARQQLGAWGGVSIPTGKGELGSEPPSGLQLPGRRPGSGSASDKQVQLQSLGAEEAERGLSSGVLPQRPRRGSISEEEQFSEATEEAEEGEHRTPCRRRAGCQRKGQISGEEASDEGEVQGQSQGSSPSFNNLRRRQWRKTRAKELQGPWDLEKLHRQLQRDLDCGPQKLPWKTLRAAFQASKRNGKAYASGYDETFVSANLPNRTFHKRQEATRSLLQAWERQRQEERQQAELRRARTQHVQRQVAHCLAAYAPRGSRGPGAAQRKLEELRRQERQRFAEYQAELQGIQHRVQARPFLFQQAMQANARLTVTRRFSQVLSALGLDEEQLLSEAGKVDREGTPRKPRSHRSVGVRMEHSPQRPPRTEPTGSQPDRHYNPSLDPECSP", "soluble on expression in E. coli": "not soluble"},
      {"sequence": "MEGVELKEEWQDEDFPIPLPEDDSIEADTLDGTDPDRQPGSLEVNGNKVRKKLMAPDISLTLDPGEDSLWSDDLDEAGEVDLEGLDTPSENSDEFEWEDDLPKPKTTEVIRKGSITEYTATEEKGDGRRWRMFRIGEQDHRVDMKAIEPYKKVISHGGYYGDGLNAIVVFAVCFMPESGQPNYRYLMDNLFKYVIGTLELLVAENYMIIYLNGATTRRKMPSLGWLRRCYQQIDRRLRKNLKSLIIVHPSWFIRTLLAVTRPFISSKFSQKIRYVFNLAELAELVPMEYVGIPECIKQVDQELNGKQEPPKSEQ", "soluble on expression in E. coli": "not soluble"},
      {"sequence": "RRYWVVLDGNFEDYLKKFSAKSRNTLLRKIKRFAELSGGEIDWREYCKPEEMHEFYKLAMEVSQKTYQERLLDCGLPSDQQFQENMLALAAEDNVRGYLLFYQKKPIAYIYCPVHDGIALYEYVGHDPEYQRWSPGTLLQYFALQRMFTASHIKIFDFTEGEGAHKAFFATNNQYCADVYYFRR", "soluble on expression in E. coli": "not soluble"}
    ]}
  ]
}
